This note sets out measurements from US20020106690A1 (published 2002).

Data set [1] deals with T1, GST-Ste20p FL (Saccharomyces cerevisiae (yeast), UniProt Q03497 1-939).
T1 construct: Purified on glutathione-Sepharose beads; also called GST fusion with full length Ste20p; not shown: glutathione S-transferase (GST), amino-terminal fusion partner
T1 sequence: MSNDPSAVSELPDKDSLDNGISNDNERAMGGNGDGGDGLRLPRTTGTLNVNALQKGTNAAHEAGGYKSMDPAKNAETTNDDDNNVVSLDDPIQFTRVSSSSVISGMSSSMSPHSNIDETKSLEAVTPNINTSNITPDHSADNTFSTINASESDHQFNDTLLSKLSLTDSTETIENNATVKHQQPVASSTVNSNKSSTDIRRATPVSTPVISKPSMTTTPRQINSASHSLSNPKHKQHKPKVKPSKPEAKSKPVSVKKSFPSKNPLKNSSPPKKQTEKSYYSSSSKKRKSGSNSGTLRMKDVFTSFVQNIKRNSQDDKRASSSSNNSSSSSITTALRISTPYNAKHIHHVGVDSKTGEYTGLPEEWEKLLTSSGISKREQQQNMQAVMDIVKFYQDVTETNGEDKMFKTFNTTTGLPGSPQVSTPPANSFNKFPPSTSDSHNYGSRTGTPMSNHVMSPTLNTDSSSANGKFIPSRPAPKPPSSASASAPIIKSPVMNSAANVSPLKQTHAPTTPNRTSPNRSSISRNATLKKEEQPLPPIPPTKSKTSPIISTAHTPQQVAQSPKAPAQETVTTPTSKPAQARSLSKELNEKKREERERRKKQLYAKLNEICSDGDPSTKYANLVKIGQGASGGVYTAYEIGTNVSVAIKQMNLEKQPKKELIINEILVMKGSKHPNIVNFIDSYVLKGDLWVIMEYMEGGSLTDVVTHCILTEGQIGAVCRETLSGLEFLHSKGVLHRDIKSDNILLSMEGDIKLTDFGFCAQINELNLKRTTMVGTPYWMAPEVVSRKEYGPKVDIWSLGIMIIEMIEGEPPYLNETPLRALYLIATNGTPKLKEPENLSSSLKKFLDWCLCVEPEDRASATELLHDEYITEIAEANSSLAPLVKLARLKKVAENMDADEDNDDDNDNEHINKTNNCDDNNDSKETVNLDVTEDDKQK
Briefly: GST pull-down of in vitro-translated 35S-Ste4p mutant, with HA-Ste18p present. The source says:
Interaction of Ste4p mutants with Ste20p and Ste5p. […] Relative amounts of the GST fusion proteins and of ³⁵S-Ste4p were quantified by densitometric evaluation of Western blots and autoradiographs, respectively. Data are given as percentage of binding of wild-type ³⁵S-Ste4p (mean values ±SD, n≧3).
The beads were then washed three times with PBS, separated by SDS-PAGE and analysed by autoradiography of Western blots. Results were confirmed in at least three independent experiments. Immunodetection and evaluation of immunoblots and radiographs were then performed as described above. Data obtained for ³⁵S-Ste4p were corrected for relative concentrations of the respective GST fusion proteins.

For data set [2], the target named is T2, Ste4p, P18851.
T2 chain: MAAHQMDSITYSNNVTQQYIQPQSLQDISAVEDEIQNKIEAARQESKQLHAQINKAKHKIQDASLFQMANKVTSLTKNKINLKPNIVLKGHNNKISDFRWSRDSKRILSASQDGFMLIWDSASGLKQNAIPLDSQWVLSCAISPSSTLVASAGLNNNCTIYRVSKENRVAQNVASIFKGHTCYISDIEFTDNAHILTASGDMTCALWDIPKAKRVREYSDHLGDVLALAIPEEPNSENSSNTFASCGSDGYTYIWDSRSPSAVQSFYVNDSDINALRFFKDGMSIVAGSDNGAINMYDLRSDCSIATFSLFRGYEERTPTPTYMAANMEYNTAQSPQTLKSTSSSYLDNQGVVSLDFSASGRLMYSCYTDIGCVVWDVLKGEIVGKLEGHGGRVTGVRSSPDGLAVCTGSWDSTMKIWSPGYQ

Data set [3] addresses T3, Ste4p (Saccharomyces cerevisiae (yeast)) (UniProt P18851).
T3 sequence (35S-labelled methionine in the in vitro-translated form, looked up): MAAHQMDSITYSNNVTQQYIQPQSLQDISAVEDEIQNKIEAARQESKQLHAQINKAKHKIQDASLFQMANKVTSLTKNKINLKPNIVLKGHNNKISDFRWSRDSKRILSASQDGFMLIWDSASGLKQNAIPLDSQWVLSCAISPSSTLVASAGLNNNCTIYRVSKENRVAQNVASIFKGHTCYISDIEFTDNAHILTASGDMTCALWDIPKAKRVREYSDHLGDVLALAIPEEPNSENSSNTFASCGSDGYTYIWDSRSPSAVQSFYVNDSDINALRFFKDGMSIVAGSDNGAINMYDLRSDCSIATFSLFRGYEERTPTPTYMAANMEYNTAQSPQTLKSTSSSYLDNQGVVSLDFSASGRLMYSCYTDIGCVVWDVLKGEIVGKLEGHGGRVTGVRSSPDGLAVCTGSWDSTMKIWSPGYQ
Briefly: GST pull-down of in vitro-translated 35S-Ste4p with HA-Ste18p present; normalized against wild-type Ste20p 819-939.

B1: Ste4p K55E mutant (other, Saccharomyces cerevisiae (yeast), UniProt P18851 1-423, looked up)
chain: MAAHQMDSITYSNNVTQQYIQPQSLQDISAVEDEIQNKIEAARQESKQLHAQINEAKHKIQDASLFQMANKVTSLTKNKINLKPNIVLKGHNNKISDFRWSRDSKRILSASQDGFMLIWDSASGLKQNAIPLDSQWVLSCAISPSSTLVASAGLNNNCTIYRVSKENRVAQNVASIFKGHTCYISDIEFTDNAHILTASGDMTCALWDIPKAKRVREYSDHLGDVLALAIPEEPNSENSSNTFASCGSDGYTYIWDSRSPSAVQSFYVNDSDINALRFFKDGMSIVAGSDNGAINMYDLRSDCSIATFSLFRGYEERTPTPTYMAANMEYNTAQSPQTLKSTSSSYLDNQGVVSLDFSASGRLMYSCYTDIGCVVWDVLKGEIVGKLEGHGGRVTGVRSSPDGLAVCTGSWDSTMKIWSPGYQ
modifications: 35S-labelled methionine
notes: In vitro-translated, 35S-labelled; also called STE4^K55E; 35S-Ste4p K55E
With B1, in data set [1], the binding result is recorded as “no binding”.

B2: Ste4p D62N mutant (other, Saccharomyces cerevisiae (yeast), UniProt P18851 1-423, looked up)
chain: MAAHQMDSITYSNNVTQQYIQPQSLQDISAVEDEIQNKIEAARQESKQLHAQINKAKHKIQNASLFQMANKVTSLTKNKINLKPNIVLKGHNNKISDFRWSRDSKRILSASQDGFMLIWDSASGLKQNAIPLDSQWVLSCAISPSSTLVASAGLNNNCTIYRVSKENRVAQNVASIFKGHTCYISDIEFTDNAHILTASGDMTCALWDIPKAKRVREYSDHLGDVLALAIPEEPNSENSSNTFASCGSDGYTYIWDSRSPSAVQSFYVNDSDINALRFFKDGMSIVAGSDNGAINMYDLRSDCSIATFSLFRGYEERTPTPTYMAANMEYNTAQSPQTLKSTSSSYLDNQGVVSLDFSASGRLMYSCYTDIGCVVWDVLKGEIVGKLEGHGGRVTGVRSSPDGLAVCTGSWDSTMKIWSPGYQ
modifications: 35S-labelled methionine
notes: In vitro-translated, 35S-labelled; also called STE4^D62N; 35S-Ste4p D62N
For B2, the binding result in data set [1] was “no binding”.

B3: Ste20p^S879A/S880A/P883A (protein)
chain: MSNDPSAVSELPDKDSLDNGISNDNERAMGGNGDGGDGLRLPRTTGTLNVNALQKGTNAAHEAGGYKSMDPAKNAETTNDDDNNVVSLDDPIQFTRVSSSSVISGMSSSMSPHSNIDETKSLEAVTPNINTSNITPDHSADNTFSTINASESDHQFNDTLLSKLSLTDSTETIENNATVKHQQPVASSTVNSNKSSTDIRRATPVSTPVISKPSMTTTPRQINSASHSLSNPKHKQHKPKVKPSKPEAKSKPVSVKKSFPSKNPLKNSSPPKKQTEKSYYSSSSKKRKSGSNSGTLRMKDVFTSFVQNIKRNSQDDKRASSSSNNSSSSSITTALRISTPYNAKHIHHVGVDSKTGEYTGLPEEWEKLLTSSGISKREQQQNMQAVMDIVKFYQDVTETNGEDKMFKTFNTTTGLPGSPQVSTPPANSFNKFPPSTSDSHNYGSRTGTPMSNHVMSPTLNTDSSSANGKFIPSRPAPKPPSSASASAPIIKSPVMNSAANVSPLKQTHAPTTPNRTSPNRSSISRNATLKKEEQPLPPIPPTKSKTSPIISTAHTPQQVAQSPKAPAQETVTTPTSKPAQARSLSKELNEKKREERERRKKQLYAKLNEICSDGDPSTKYANLVKIGQGASGGVYTAYEIGTNVSVAIKQMNLEKQPKKELIINEILVMKGSKHPNIVNFIDSYVLKGDLWVIMEYMEGGSLTDVVTHCILTEGQIGAVCRETLSGLEFLHSKGVLHRDIKSDNILLSMEGDIKLTDFGFCAQINELNLKRTTMVGTPYWMAPEVVSRKEYGPKVDIWSLGIMIIEMIEGEPPYLNETPLRALYLIATNGTPKLKEPENLSSSLKKFLDWCLCVEPEDRASATELLHDEYITEIAEANAALAALVKLARLKKVAENMDADEDNDDDNDNEHINKTNNCDDNNDSKETVNLDVTEDDKQK
In the case of B3, in data set [2], the FUS1::lacZ expression came out at 14, the G1 arrest entry is recorded as “-”, the Mating efficiencies (%) came to 0.039% and the Shmoo formation result is given as “-”.

B4: Ste20p^CLA4 (protein)
chain: MSNDPSAVSELPDKDSLDNGISNDNERAMGGNGDGGDGLRLPRTTGTLNVNALQKGTNAAHEAGGYKSMDPAKNAETTNDDDNNVVSLDDPIQFTRVSSSSVISGMSSSMSPHSNIDETKSLEAVTPNINTSNITPDHSADNTFSTINASESDHQFNDTLLSKLSLTDSTETIENNATVKHQQPVASSTVNSNKSSTDIRRATPVSTPVISKPSMTTTPRQINSASHSLSNPKHKQHKPKVKPSKPEAKSKPVSVKKSFPSKNPLKNSSPPKKQTEKSYYSSSSKKRKSGSNSGTLRMKDVFTSFVQNIKRNSQDDKRASSSSNNSSSSSITTALRISTPYNAKHIHHVGVDSKTGEYTGLPEEWEKLLTSSGISKREQQQNMQAVMDIVKFYQDVTETNGEDKMFKTFNTTTGLPGSPQVSTPPANSFNKFPPSTSDSHNYGSRTGTPMSNHVMSPTLNTDSSSANGKFIPSRPAPKPPSSASASAPIIKSPVMNSAANVSPLKQTHAPTTPNRTSPNRSSISRNATLKKEEQPLPPIPPTKSKTSPIISTAHTPQQVAQSPKAPAQETVTTPTSKPAQARSLSKELNEKKREERERRKKQLYAKLNEICSDGDPSTKYANLVKIGQGASGGVYTAYEIGTNVSVAIKQMNLEKQPKKELIINEILVMKGSKHPNIVNFIDSYVLKGDLWVIMEYMEGGSLTDVVTHCILTEGQIGAVCRETLSGLEFLHSKGVLHRDIKSDNILLSMEGDIKLTDFGFCAQINELNLKRTTMVGTPYWMAPEVVSRKEYGPKVDIWSLGIMIIEMIEGEPPYLNETPLRALYLIATNGTPKLKEPENLSSSLKKFLDWCLCVEPEDRASATELLHDEYITEIAEANKDLTSLLEWARLKKVAENMDADEDNDDDNDNEHINKTNNCDDNNDSKETVNLDVTEDDKQK
For the molecule B4, in data set [2], the FUS1::lacZ expression turned out to be 11, the G1 arrest entry was “-”, the Mating efficiencies (%) turned out to be 0.016% and the Shmoo formation result was “-”.

B5: GST fusion with the fragment from amino acid 819 to 939 of the Ste20p^S879A/S880A/P883A mutant (protein, not shown: a dimerising Fc or GST; large carriers; small tags and cut ends)
chain: PLRALYLIATNGTPKLKEPENLSSSLKKFLDWCLCVEPEDRASATELLHDEYITEIAEANAALAALVKLARLKKVAENMDADEDNDDDNDNEHINKTNNCDDNNDSKETVNLDVTEDDKQK
For B5, the Binding to 35S-Ste4p (%) in data set [3] was 15.2%.

B6: Ste20p^495-888 (protein)
chain: MNSAANVSPLKQTHAPTTPNRTSPNRSSISRNATLKKEEQPLPPIPPTKSKTSPIISTAHTPQQVAQSPKAPAQETVTTPTSKPAQARSLSKELNEKKREERERRKKQLYAKLNEICSDGDPSTKYANLVKIGQGASGGVYTAYEIGTNVSVAIKQMNLEKQPKKELIINEILVMKGSKHPNIVNFIDSYVLKGDLWVIMEYMEGGSLTDVVTHCILTEGQIGAVCRETLSGLEFLHSKGVLHRDIKSDNILLSMEGDIKLTDFGFCAQINELNLKRTTMVGTPYWMAPEVVSRKEYGPKVDIWSLGIMIIEMIEGEPPYLNETPLRALYLIATNGTPKLKEPENLSSSLKKFLDWCLCVEPEDRASATELLHDEYITEIAEANSSLAPLVKLA
In the case of B6, in data set [2], the FUS1::lacZ expression, Basal was determined as 1.6; the FUS1::lacZ expression, Induced was 148; the G1 arrest result is listed as “+”; the Mating efficiencies (%) stood at 75.2%. For the same molecule, the Shmoo formation entry in data set [2] is given as “+”.
